Data: the nanobody polyreactivity screen of Harvey et al. (2022)

Experiment: yeast display, Sf9 membrane polyspecificity reagent, FACS + sequencing; frameworks hold sequencing errors
How it was run: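 Polyreactivity labels are assigned by the sorting gate from which each nanobody was recovered. The gates were low and high (top ~1%), set on anti-HA fluorescence for expression and streptavidin fluorescence for reagent binding. Before sorting, galactose-induced (36–48 hours) yeast display cells were stained for 1 hour at 4 °C with 10% biotinylated, detergent-solubilized Sf9 membrane reagent.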

| Sequence | polyreactivity (PSR sort gate) |
| --- | --- |
| QVQLVESGGGLVQAGGRLRLSCAASGFTFDYNAMGWYIQAPGKEREFVASISVSGGSTYYADSVKGRFTISRDNAKNTVYLQMNSLKPEDTAVYYCAAELTGDGTLGYDFWGQGTQVTVSS | low polyreactivity |
| QVQLVESGGGLVQAGGSLRLSCAASGRTFVRYAMGWYRQAPGKERELVARITSRGTSTYYADSVKGRFTISRDNAKNTVYLQMNSLKPEDTAVYYCNKVSTFREKSRYDYWGQGTQVTVSS | low polyreactivity |
| QVQLVESGGGLVQAGGSLRLSCAASGFIFGRYAMGWYRQAPGKERELVAGISSRGGRTYYADSVKGRFTISRDTAKNPVFLQINSLKPEDTAVYYCGAAGLTDYVRYDYWGQGTQVTVSS | high polyreactivity |
| QVQLVESGGGLVQAGGSLRLSCAASGSTIPNYAKGWYRQAPGKERELVARIRWNGDSTYYADSVKGRFTISRDNAKNTVYLQMNSLKPEDTAVYYCARQGYTLYRTRYRYDYWGQGTQVTASS | high polyreactivity |
| QVQLVESGGGLVQAGGSHRLSCAASGYIFRYSTMGWYRQAPGKERELVAVITRGGSTYYADSVKGRFTISRDNAKNTVYLQMTSLNPEDTAVYYCAAVRTKVWRGPEMDYWGQCTQVTVSS | high polyreactivity |
| QVQLVESGGGLVQAGGSLRLSCAASGRIFVYYVMGWYRQAPGKERELVASITFRGSRTYYADSVKGRFTISRDNAKNTVYLQMNSLKTEETAGYYCNADVWASGSRGEGYWGQGSQVTVSS | low polyreactivity |
| QVQLVESGGGLVQAGGSLRLSCAASGSTLRWNTMGWYRQAPGKERQLVARISKSGGSTSYADSVKGRLTISRDNAKNTVYLQMNSLKPEDTAVYYCAKTPSQGYVFSYRWGDYWGQGTQVTVSS | high polyreactivity |
| QVQLVESGGGLVQAGGSLRLSSAASGSTLVYYDRGWYRQAPGKERELVATITGTDSTYYADSVKGRFTISRDNAKNTVYLQMNSLKPVDTADCAADRAASRPVYDYWGQGTQVTVSS | low polyreactivity |
| QVQLVESGGGLVQAGGSLRLSCAASGSIFYGNAMGWYRQAPGKERELVAAIDGTGASTYYADSVKGRFTISRDNAKNTVYLKMNSLKPEDTAVYYCNKALTSKDYPVRTVERDYWGQGTQVTVSS | low polyreactivity |
| QVQLVESGGGLVQAGGSLRLSCAASGSIFSSYAMGWYRQAPGKERELVAAISSGGITYYADSVKGRFTISRDNAKNTVYLQMNSLKPEDTAVYYCAAVRRRGTTYDYWGQGTQVTVSS | high polyreactivity |
| QVQLVESGGGLVQAGGSLRLSCAASGSIFRIYAMGWYRQATGKETELVAAITWSGGSTYYADSVKGRFTISRDNAKNSVYLQMNSLKPEDTAVYYCAAVVIYWYQRVGYRSDYWGQGTQVTVSS | high polyreactivity |
| QVQLVESGGGLGQAGGSLSLSCAAYGRIYSRYAMGWYRQAPGKERELVAAINSGGITNYADSVKGRFTISRDNAKNTVYLQMNSLNPEDTAVYYCAAQARRSWGKYYYWGQGTQVPVSS | high polyreactivity |
| QVQLLESGGGLVQAGGSLRLSCAASGSTFDRYAMGWNRQAPGKEREFVAAITWGGGSTYYADSVKGRFTISRDNAKNTVYLKFNSLKPEDTAVYYCATRYGASFGYWVQGTQVTVSS | low polyreactivity |
| QVQLVESGGGLVQAGGSLRLSCAASGLIFQVYDIGWYRQAPGKERELVAAISSGSNTNYADSVKGRFTISRDNAKNTVYLQMNSLKPEDTAVYYCAADFQYYFFWEEDYWGQGTQVTVSS | low polyreactivity |
| QVQLVESGGGLVQAGGSLRLSCAASGSIFYSNAMGWYRQAPGKERELVAAISFTGGTTYYADSVKGRFTISRDNAKNTVYLQMNSLKPEDTAVYYCNKLYHHYYGYWGQGTQVTVSS | high polyreactivity |
| QVQLVESGGGLVQAGGSLRLSCAASGRIFGRNAMGWYRQAPGKERELVAAISSSGGRTYYADSVKGRFSISRDNAKNTVYLQMMSLKPEDTAVYYCAAVGSLYYYRYDYWGQGTQVTVSS | high polyreactivity |
| QVQLVESGGGLVQAGGSLRLSCAASGSTFTRYDMGGYRHAPGKERELVAAISKSGGSTYYADSVKGRFTISRDNAKNTVYLQMNSLKPEDTAVYYCARGSTKYHIYSLDYWGQGTQVTVSS | low polyreactivity |
| QVQLVESGGGLVQAGGSLRLSCAASGSIFFVNDMGWYRQAPGKERELVAAITRDGGTNYADSVKGRFTISRDNAKNTVYLQMNSLKPEDTAVYYCAKESGSVLSLYDYWGQGTQVTVSS | low polyreactivity |
| QVQLVESGGGLVQAGGSLRLSCAASGFTFWVYAMGWYRQAPGKEREFVASISWTGDTTYYADSVKGRFTISRDNAKNTVYLQMNSLKPEDTAVYYCAGDTILGYDYWGQGTQVTVSS | low polyreactivity |
| QVQLVESGGGLVQAGGSLRLSCAASGRIFYYYTMGWYRQAPGKERELVAGISRSGDRTYYADSVKGRFTISRDNAKNTVYLQMNSLKPEDTAVYYCATRWSSARMDYWGLGTQVTVSS | high polyreactivity |
| QVQLVESVGGLVQAGGSLRLSCAASGRIFAVYAMGWYRQAPGKEREFVAAISYSGGITYYADSVKGRFTISRDNAKNTVYLQMNSLKPEDTAVYYCNAYYYFWGQGTQVTVSS | low polyreactivity |
| QVQLVESGGRLVQAGGSLRLSCAASGITLNRNAMGWYRQEPGKESELVARISRRGGTTYYADSVKGRFTISRYYAKNTVYLQMNSLKPEDTAVYYCAASYSDRKLTDYWGQRTQVTVSS | high polyreactivity |

| Sequence | polyreactivity (PSR sort gate) |
| --- | --- |
| QVQLVESGGALVQAGGSLRLSCAASGYTFSKNTMGWYRQAPGKEREFVAAINWSGGSTYYADSVKGRFTISRDNEKNTVYLQMNSLKPEDTAVYYCAARRGGRRGYDYWGQGTQVTVSS | high polyreactivity |
| QVEHVDSGGGLVQAGGSLRLSCAASGRTIWDYMGWYRQAPGKEREVVATITSSGGSTYYADSVKGRFTISRDNAKNTVYLQMNSLKPEDTAVYYCNADWYLWSTFAQGYGYWGQGTQVTVSS | high polyreactivity |
| QVQLVESGGGLVQAGGSLRLSCAASGSIFDGYGMGWSRQAPGKERELVAGITSGGSTYYADSVKGRFTISRDNAKNTVYLQMNSLKPEDTAVYYCATVVRYSNARGDYWGQGTQVTVSS | low polyreactivity |
| QVQLVDSGGGLVQAGGSLRLSCAASGRIFPRNAMGWYRQAPGKERELVATIRSSTYYADSVKGRFTISRDNAKNTVYLQMNSLKPEDTAVYYCNVRLSYSYISPSDWNFDYWGQGTQVTVSS | low polyreactivity |
| QVQLEDSGGGLVQAGGSLRLSCAASGRIFYAYAMGWYRPAPGKEREFVASISGSGGSTYYADSVKGRFTISRDNAKNTVYLQMNSLKPEDTAVYYCAKRYPFFSSGLSPYNYWGQGTQVTVSS | high polyreactivity |
| QVQLVESGGGLFQAGGSLRLSCAASGFTFARYAMGRSRTAPAKERELVARISWSGGSTYYADSVKGRFTISRDNAKNTVYLLMYSLKTEDTEVYYCAADGWYYRYPRDDYWGQGTQETVSS | low polyreactivity |
| QVQLEESGGGLVQAGGSLRLSCAASGRIFKRYAMGWYRQAPGKERELVAAITWSGTRTYYADSVKGRFTISRDNAKNTVYLQMNSLKPEDTAVYYCAADQKYHQRPSEYGYWGQGTQVTVSS | high polyreactivity |
| QVQLQESGGGLVQAGGSLRLSCAASGSISSRDAMGWYRQAPGKEREFVATIASGTTTYYADSVKGSFTISRDNAENTVYLQTNSLKPEDTAVYYCAAPTIQIYPFYYWGQGTQVTVSC | high polyreactivity |
| QLHLEESGGGLVQAGGSLRISCAASGSTFGIYAMGSYRQAPGKEREILAAISVGGGRTYYADTVKGRFTISRDNAKNTVLLQMNSLKPEDTAVYYCAVYGFWGLGTQVTVSS | high polyreactivity |
| QVQLVESGGGLVQAGGSLRLSCAASGSIRYYAMGWYRPAPGKERELVAGITRNGGSTYYADSVKGRFTISRDNAKNTVYLQMNSLKPEDTAVYYCAAGFTTRRGEYNYWGQGTQVTVSS | high polyreactivity |
| QVQLVESGGGLVQAGGSLRLSCAASGFTLYGYAMGWYRQAPGKERELVAGIRYSGGRTYYADSVKGRFTISRDNAKNTVYLQMNSLKPEDTAVYYCAADGGYWRGTGYEYWGQGTQVTVSS | high polyreactivity |
| QVQLVESGGGLVQAGGSLRLRCAASGSTFDSYAMGWYRQAPGKERELVAAITTTGGSTFYADSVKGRFTISRDYAKNTVYLQMNSLKPEDTAVYYCAADDGWQEFEYWGQGTQVTVSS | low polyreactivity |
| QVQLVESGGGLVQAGGSLSISCAASGRTFYAYAMGWYRQAPGTERELVASIDKSGGSTYYADSVKGRFTISRRIRRYRLFTDEQPETGRYRCLLLRCWCVVLSDFQFWGDFDYDYWGQGTQVTVSS | low polyreactivity |
| QVQLVESGGGLVQAGGSLRLSCSASGFIFRRYAMGWYRQAPGKEREFVAAITSSGTSTYYADSVKGRFTISRDNAKNTVYLQMNSLKPEDTAVYYCADVYQYTHYYSNYGYWGEGTQVTVSS | high polyreactivity |
| QVQLVESGGGLVQAGGSLRLSSAASGGILPIYAMGWYRQAPGKERELVATITGSGGGTYADSVKGRFTISRDNAKNTVYLQMNSLKPEDTAVYYCNADLGPVGHIDGYSYYDYDYWGQGTQVTVSS | low polyreactivity |
| QVQLVESGGGLVQAGGSLRLSCAASGSIFRPNAMGWYRQAPGKERELVAAITFRGSRTYYADSVKGRFTISRDNAKNTVYLQMNSLKPEDTAVYYCNADYSSYWTSYDYWGQGTQVTVSS | high polyreactivity |
| QVQLVESVGGLVQAGGSLRLSCAASGSTFKAYAVGWYRQAPGKEGELVAAITKSGGRTYYADSVKGRFTISLDNAKNTVYLQMNSLKPEDTAVYYCAAVFRPDSSAFRYYYWGQGTQVTVSS | high polyreactivity |
| QVQHVESAGGLVQAGGSLRLSCAASGRIFYVNAMGWYRPAPGKERQLVAAIRSAVGTYYADSVKGRFTISRDNAKNTVYLQMNSLKPEDTAVYYCNADASFREYRFYLIEMDYWGQGTKVTVSS | high polyreactivity |
| QVQLVESGGGLVQAGGSLRLSCAASGFTFDIYAMGWYRQAPGKERELVATISRSGGTTYYADSVKGRFTISRDNAKNTVYLQMNSLKPEDTAVYYCNAGRYYIGGYWGQGTQVTVSS | high polyreactivity |
| QVQLVESGGGLVQAGGSLRLSCAASGSTFRWNAMGWYRQAPGKERELVASITSGGSTNYADSVKGRFTISRDNAKNTVYLQMNSLKPEDTAVYYCNADVRRSTYYVWLYDYWGQGTQVTVSS | low polyreactivity |
| QVQLVESGGGLVQAGGSLRLSCAASGGTFKRNAMGWYRQAPGKERELVAAISTSGATTYYADSVKGRFTISRDNAKNTVYLQMNSLKPEDTAVYYCNAVGDARYNYWGQGTQVTVSS | high polyreactivity |
